Data as given in patent publication US20220204643A1 (published 2022).

What was measured:
[1] = target: T1, kelch like family member 40 (human, UniProt Q2TBA0 1-621); experiment: protein array
T1 construct: on protein array; also called KLHL40
T1 sequence: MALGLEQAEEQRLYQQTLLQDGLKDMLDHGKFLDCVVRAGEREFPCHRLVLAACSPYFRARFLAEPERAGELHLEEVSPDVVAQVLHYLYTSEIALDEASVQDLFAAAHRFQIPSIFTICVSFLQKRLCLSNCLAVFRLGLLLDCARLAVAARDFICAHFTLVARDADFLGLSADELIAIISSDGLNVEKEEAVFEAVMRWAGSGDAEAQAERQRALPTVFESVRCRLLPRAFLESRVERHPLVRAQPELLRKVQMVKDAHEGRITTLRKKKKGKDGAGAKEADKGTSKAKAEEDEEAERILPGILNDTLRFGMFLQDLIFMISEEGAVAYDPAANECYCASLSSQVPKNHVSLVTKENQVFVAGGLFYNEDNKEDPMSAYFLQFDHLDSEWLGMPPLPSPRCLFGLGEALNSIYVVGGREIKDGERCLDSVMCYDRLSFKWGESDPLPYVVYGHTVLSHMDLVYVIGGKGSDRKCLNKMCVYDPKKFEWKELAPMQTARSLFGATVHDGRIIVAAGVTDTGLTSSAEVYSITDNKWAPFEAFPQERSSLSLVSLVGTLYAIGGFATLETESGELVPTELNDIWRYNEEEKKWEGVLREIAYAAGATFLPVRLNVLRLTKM

[2] = target: T2, membrane palmitoylated protein 2, transcript variant 3 (human, UniProt Q14168 1-576); experiment: protein array
T2 construct: on protein array; also called MPP2
T2 sequence: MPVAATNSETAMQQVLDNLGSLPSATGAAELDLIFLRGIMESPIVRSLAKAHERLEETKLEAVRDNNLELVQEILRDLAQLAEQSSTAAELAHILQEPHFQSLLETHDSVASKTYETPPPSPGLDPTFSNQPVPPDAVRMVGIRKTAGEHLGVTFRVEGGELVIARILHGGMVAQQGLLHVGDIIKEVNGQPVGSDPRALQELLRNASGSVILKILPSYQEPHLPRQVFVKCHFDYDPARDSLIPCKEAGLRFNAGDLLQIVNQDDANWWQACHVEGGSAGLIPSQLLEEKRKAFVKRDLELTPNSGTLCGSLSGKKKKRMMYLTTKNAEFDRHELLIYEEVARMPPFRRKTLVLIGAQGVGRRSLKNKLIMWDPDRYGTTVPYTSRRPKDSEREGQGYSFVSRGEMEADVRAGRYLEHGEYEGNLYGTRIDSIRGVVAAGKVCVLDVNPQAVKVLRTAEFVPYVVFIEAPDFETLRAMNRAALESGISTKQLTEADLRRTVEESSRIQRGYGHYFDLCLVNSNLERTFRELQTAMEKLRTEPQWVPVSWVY

[3] = target: T3, SNAP associated protein, transcript variant 1 (human, UniProt O95295 2-136)
T3 construct: HuProt array protein, full-length recombinant from yeast; also called SNAPIN
T3 sequence: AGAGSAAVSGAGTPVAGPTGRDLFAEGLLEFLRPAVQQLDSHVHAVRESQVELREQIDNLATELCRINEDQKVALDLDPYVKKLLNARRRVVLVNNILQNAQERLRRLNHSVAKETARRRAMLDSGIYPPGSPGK

Reticulocalbin 3 = target: T4, Reticulocalbin 3 (human, UniProt Q96D15 21-328)
T4 construct: HuProt array protein, full-length recombinant from yeast; also called RCN3
T4 sequence: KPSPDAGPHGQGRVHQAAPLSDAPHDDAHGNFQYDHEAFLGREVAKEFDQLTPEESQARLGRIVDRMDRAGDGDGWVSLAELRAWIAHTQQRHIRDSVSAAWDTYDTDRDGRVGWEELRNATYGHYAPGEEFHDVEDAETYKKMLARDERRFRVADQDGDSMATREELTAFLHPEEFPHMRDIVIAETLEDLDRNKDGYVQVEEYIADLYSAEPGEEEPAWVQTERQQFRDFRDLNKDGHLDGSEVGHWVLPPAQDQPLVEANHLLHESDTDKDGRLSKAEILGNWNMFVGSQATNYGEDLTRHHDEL

[4] = target: T5, glycogen phosphorylase L, transcript variant 1 (human, UniProt P06737 2-847)
T5 construct: HuProt array protein, full-length recombinant from yeast; also called PYGL
T5 sequence: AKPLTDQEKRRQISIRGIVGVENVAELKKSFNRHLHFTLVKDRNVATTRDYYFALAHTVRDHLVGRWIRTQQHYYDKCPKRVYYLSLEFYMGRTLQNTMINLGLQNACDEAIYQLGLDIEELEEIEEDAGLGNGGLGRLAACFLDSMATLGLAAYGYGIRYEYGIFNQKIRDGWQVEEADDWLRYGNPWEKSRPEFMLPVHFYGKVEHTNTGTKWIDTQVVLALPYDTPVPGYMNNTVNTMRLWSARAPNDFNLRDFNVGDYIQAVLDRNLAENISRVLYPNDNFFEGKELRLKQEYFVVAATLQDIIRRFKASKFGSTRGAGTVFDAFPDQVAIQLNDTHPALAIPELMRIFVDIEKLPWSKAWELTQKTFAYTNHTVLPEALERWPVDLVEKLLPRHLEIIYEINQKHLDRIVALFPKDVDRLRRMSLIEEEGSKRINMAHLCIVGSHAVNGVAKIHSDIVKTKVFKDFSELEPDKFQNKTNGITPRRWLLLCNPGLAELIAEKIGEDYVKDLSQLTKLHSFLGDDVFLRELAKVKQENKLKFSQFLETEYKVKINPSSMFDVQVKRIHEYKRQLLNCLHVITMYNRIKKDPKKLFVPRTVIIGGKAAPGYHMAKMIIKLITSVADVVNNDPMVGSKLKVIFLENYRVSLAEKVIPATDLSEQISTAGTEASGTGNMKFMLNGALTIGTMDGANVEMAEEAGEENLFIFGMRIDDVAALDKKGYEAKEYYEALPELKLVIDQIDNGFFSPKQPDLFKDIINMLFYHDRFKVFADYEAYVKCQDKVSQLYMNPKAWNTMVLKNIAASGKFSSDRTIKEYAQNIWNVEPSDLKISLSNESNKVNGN

[5] = target: T6, synaptotagmin 12, transcript variant X4 (human, UniProt Q8IV01 1-421)
T6 construct: HuProt array protein, full-length recombinant from yeast; also called SYT12
T6 sequence: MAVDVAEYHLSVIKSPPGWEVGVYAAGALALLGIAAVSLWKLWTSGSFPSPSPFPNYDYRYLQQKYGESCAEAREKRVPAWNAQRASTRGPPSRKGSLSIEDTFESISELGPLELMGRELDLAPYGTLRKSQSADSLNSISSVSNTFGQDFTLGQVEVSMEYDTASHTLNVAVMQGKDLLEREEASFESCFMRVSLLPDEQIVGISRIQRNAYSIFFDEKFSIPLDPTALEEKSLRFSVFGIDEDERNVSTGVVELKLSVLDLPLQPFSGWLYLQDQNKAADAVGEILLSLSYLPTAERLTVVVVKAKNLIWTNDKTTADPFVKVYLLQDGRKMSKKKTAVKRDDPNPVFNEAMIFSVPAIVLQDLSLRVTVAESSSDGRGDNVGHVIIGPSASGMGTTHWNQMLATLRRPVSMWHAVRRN

[6] = target: T7, olfactory receptor family 6 subfamily Q member 1 (gene/pseudogene) (human, UniProt Q8NGQ2 1-317)
T7 construct: HuProt array protein, full-length recombinant from yeast; also called OR6Q1
T7 sequence: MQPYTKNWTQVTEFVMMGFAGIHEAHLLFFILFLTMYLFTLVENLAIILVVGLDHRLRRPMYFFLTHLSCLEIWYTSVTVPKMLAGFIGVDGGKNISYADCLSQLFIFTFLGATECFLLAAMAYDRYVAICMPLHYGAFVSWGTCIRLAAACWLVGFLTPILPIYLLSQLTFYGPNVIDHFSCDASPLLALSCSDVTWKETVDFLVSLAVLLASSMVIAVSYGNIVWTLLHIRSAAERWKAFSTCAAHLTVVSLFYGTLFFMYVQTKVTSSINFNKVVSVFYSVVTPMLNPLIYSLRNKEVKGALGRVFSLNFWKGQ

[7] = target: T8, butyrophilin subfamily 1 member A1 (human, UniProt Q13410 27-526); experiment: protein array
T8 construct: on protein array; also called BTN1A1
T8 sequence: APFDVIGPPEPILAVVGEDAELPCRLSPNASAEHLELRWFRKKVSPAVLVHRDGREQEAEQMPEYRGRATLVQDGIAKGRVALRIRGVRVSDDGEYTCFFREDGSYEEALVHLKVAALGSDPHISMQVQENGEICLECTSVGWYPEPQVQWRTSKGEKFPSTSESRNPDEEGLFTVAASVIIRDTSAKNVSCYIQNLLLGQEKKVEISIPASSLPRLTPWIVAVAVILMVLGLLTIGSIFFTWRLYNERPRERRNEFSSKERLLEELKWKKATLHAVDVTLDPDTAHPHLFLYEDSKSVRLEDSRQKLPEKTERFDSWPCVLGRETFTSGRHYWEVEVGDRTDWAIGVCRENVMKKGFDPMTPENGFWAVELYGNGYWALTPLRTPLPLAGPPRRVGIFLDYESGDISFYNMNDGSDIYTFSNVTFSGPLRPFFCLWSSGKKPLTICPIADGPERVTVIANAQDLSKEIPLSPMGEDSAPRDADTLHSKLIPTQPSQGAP

cancer/testis antigen 1A = target: T9, cancer/testis antigen 1A (human, UniProt P78358 1-180)
T9 construct: HuProt array protein, full-length recombinant from yeast; also called CTAG1A
T9 sequence (P78358 whole entry): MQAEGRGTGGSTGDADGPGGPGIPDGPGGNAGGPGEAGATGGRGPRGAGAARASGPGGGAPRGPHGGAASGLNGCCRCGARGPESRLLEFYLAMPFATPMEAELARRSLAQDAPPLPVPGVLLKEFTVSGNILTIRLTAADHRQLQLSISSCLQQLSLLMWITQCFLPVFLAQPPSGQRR

[8] = target: T10, 5-hydroxytryptamine receptor 1E (human, UniProt P28566 1-365)
T10 construct: HuProt array protein, full-length recombinant from yeast; also called HTR1E
T10 sequence (P28566 whole entry): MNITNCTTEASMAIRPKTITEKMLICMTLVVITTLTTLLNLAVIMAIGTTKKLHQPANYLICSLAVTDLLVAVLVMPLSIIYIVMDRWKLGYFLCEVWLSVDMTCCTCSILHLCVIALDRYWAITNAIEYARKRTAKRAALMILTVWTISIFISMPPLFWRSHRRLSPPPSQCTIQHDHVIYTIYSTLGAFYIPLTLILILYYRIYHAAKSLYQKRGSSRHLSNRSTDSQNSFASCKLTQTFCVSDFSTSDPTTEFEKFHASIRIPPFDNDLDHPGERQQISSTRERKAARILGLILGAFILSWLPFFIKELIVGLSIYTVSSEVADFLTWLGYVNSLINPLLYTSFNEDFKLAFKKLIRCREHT

B1: TBRE1012 (antibody, V domains shown)
VH: QVQLQESGPGLVKPTQTLSLTCTVSGGSISSGSYYWNWIRQPAGKGLEWIGNIYTSGNTDYNPSLKSRVTISLDTSKNQVSLNLTSVTAADTAVYYCATTPSSSWYWYFDPWGQGTLVTVSS
VL: DLQMTQSPSSLSASIGDRVTITCRASQSISTYFNWYQQKPGKAPKLLIYAASSLQSGVPSRFSGSGSGTDFTLTITSLQPEDFATYYCQQTYSNPWTFGQGTKVDFKR
notes: VH/VL only
binding result [1]: binds | binding result [2]: binds

B2: TBLA1006 (antibody, V domains shown)
VH: VQLVDSGGGLVQPGRSLRLSCAASGFVFDDYAMHWVRQVPGKGLEWVSGISWNSVSIGYADSVKGRFTISRDNAKNSLYLQMNSLRPEDAALYYCVKSFSAEYYYYYYGMDVWGQGTTVTVSS
VL: LYVLTQPPSVSVAPGTTAWISCGGNNIGIKSVHWYQQKPGQAPLLVISYDSDRPSVIPERFSVSNSGNTVTLTISRVEAGDEADYYCQVWDNGHSHWVFGGGTKLTVLG
notes: detected with anti-human IgG Fc
binding result [3]: binds

B3: TBLA1007 (antibody, V domains shown)
VH: QVQLVQSGAEVKKPGASVKVSCKASGYTFTNYGFSWVRQAPGQGLEWMGRITTYNRDTIYAQKFQGRVTMTTDTSTSTAYMELRSLRSDDTAVYFCARVVPGDSVYGAFDIWGQGTMVTVSS
VL: DIQMTQSPSSLSASVGDRVTITCRASQSISSYLNWYQQKPGRAPRLLIYAASRLQIGVPSRFSGSGSGTDFTLTISSLQPEDFATYYCQQSYRMPCSFGQGTKLEI
notes: as for B2
binding result (Reticulocalbin 3): binds | binding result [4]: binds | binding result [5]: binds

B4: TBLA1010 (antibody, V domains shown)
VH: EVQLVESGGGLVQPGRSLRLSCAASGFPFGDYAMHWVRQAPGKGLEWVSGIGWDSGGIGYADSVKGRFTISRDIAKNSLYLEINSLRPDDTALYYCAKAAATLPYFRFAMDVWGQGTPVTVSS
VL: EIVLTQSPGTLSLSPGERATLSCRASQSVSSSYLAWYQQKPGQAPRLLIFGASTRASGIPDRFSGRGSGTEFTLTISRLEPEDFAVYYCQQYDSSPFTFGPGTKVEIKR
notes: as for B2
binding result [6]: binds

B5: TBRE1013 (antibody, V domains shown)
VH: EVQLVESGGGLVKPGGSLRLSCAGSGFSFSSYSMNWVRQAPGKGLEWVSSISSKSSSKNYIDSVKNRFIISRDNAKNSLYLQMNSLRAEDTAVYYCARDLELIIAAGAPLDHWGQGTLVTVSS
VL: DIQMTQSPSSLSASVGDRVTITCRASQSIKNYVNWYQQKPGEAPNLLIFAASNLQSGVPSRFTGSGSGTDFSLTISSLQPEDFAAYYCQQTYSHPRTFGQGTRVEIKR
notes: VH/VL only
binding result [7]: binds

B6: TBLA1012 (antibody, V domains shown)
VH: LLQLVESGGGVVQPGRSLRLSCAASGFTFTRHGFHWVRQAPGKGLEWVAVISSDGRKIHYTDSVKGRFVISRDDSDNTVYLHMNSLRLGDTALYYCARDSGGTPGPYWGQGTLVTVSS
VL: DVVMTQSPLSLPVTLGQPASISCRSSQSLVHSDGNTYLNWFQQRPGQSPRRLIYMVSNRDSGVPDRFSGSGSGTDFTLKISRVEAEDVGVYYCLQGTHWPPTIGQGTKVEIE
notes: as for B2
binding result (cancer/testis antigen 1A): binds

B7: TBLA1013 (antibody, V domains shown)
VH: EVQLLESGGGLVQPGGSLTLSCVGSRFTFSSYAMNWVRQSPGRGLEWVASISATTGSTYYTDSVEGRFTISRDNSRDTLYLQMNSLRADDTALYYCVRSFVGAVPAYPNFDFWGPGTLVTVSS
VL: PSGLTQPPSASGTPGQRVTMSCSGSSSNIGRNYVYWYQQLPGAAPKLLIYRDNQRPSGVPDRFSGSKSGTSASLAISGLRSEDEADYYCAAWDDNVSGPGFGAGTRLTVLG
notes: as for B2
binding result [8]: binds
